B1: FAS-associated death domain protein (Homo sapiens), Q13158 (parent)
chain: MDPFLVLLHSVSSSLSSSELTELKFLCLGRVGKRKLERVQSGLDLFSMLLEQNDLEPGHTELLRELLASLRRHDLLRRVDDFEAGAAAGAAPGEEDLCAAFNVICDNVGKDWRRLARQLKVSDTKIDSIEDRYPRNLTERVRESLRIWKNTEKENATVAHLVGALRSCQMNLVADLVQEVQQARDLQNRSGAMSPMSWNSDASTSEAS

Variants of: B1
Details: with plk1_human PLK1, P53350
Chain of plk1_human PLK1, P53350 (P53350 whole entry): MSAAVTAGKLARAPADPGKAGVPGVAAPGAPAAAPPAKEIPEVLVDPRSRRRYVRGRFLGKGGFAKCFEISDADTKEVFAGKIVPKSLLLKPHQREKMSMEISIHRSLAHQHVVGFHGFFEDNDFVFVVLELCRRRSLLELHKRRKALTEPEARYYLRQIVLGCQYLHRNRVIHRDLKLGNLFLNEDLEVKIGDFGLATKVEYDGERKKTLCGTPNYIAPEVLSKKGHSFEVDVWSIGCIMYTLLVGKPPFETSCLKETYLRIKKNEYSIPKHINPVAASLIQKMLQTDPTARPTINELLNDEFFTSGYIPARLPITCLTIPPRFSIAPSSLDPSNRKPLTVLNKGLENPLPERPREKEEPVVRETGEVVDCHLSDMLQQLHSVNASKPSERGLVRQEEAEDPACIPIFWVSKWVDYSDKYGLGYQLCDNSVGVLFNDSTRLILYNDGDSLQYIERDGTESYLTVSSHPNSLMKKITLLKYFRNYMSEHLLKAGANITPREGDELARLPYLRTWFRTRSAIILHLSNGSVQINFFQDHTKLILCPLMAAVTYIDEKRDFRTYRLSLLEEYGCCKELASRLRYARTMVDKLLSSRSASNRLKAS

Variant | effect of a mutation on the interaction
MDPFLVLLHSVSSSLSSSELTELKFLCLGRVGKRKLERVQSGLDLFSMLLEQNDLEPGHTELLRELLASLRRHDLLRRVDDFEAGAAAGAAPGEEDLCAAFNVICDNVGKDWRRLARQLKVSDTKIDSIEDRYPRNLTERVRESLRIWKNTEKENATVAHLVGALRSCQMNLVADLVQEVQQARDLQNRSGAMAPMSWNSDASTSEAS [S194A] | disrupting interaction
